Square brackets hold non-standard residues; d marks the D form. Ends that are not written are not given here. pS = N[C@@H](COP(=O)(O)O)C(=O)O
Target: HLA-A*02 (human)
Assay: UV-ligand exchange, anti-b2m ELISA; grade: exchange yield >=50%

Row | Binder | peptide exchange yield [%]
1 | ALANQKLYSV | 50 to 75
2 | SLFQGVEFHYV | 50 to 75
3 | RLYDPASGTISL | 50 to 75
4 | VLPNFLPYNV | 50 to 75
5 | SLLEKAGPEL | 50 to 75
6 | ILDDNMQKL | 50 to 75
7 | SLAEEKLQASV | 50 to 75
8 | LLLPLLPPLSP | 50 to 75
9 | FLLGFIPAKA | 50 to 75
10 | YLGPHIASVTL | 50 to 75
11 | GLFAPVHKV | 50 to 75
12 | SLMGPVVHEV | 50 to 75
13 | LLHGHIVEL | 50 to 75
14 | YLLHFPMAL | 50 to 75
15 | TLQDHLNSL | 50 to 75
16 | ALNENINQV | 50 to 75
17 | TLAELGAVQV | 50 to 75
18 | VVLDGGQIVTV | 50 to 75
19 | LLDDSLVSI | 50 to 75
20 | TLMDMRLSQV | 50 to 75
21 | ALLRVTPFI | 50 to 75
22 | YLGEGPRMV | 50 to 75
23 | SLQESILAQV | 50 to 75
24 | YLMEGSYNKV | 50 to 75
25 | ALIEGAGILL | 50 to 75

Row | Binder | peptide exchange yield [%]
26 | ILSGIGVSQV | 50 to 75
27 | KMFESFIESV | 50 to 75
28 | VLYPSLKEI | 50 to 75
29 | YIFTTPKSV | 50 to 75
30 | RTIEYLEEV | 50 to 75
31 | YQMDIQQEL | 50 to 75
32 | ILNVDGLIGV | 50 to 75
33 | SVLDQKILL | 50 to 75
34 | QLIDYERQL | 50 to 75
35 | KLDAFVEGV | 50 to 75
36 | SLLHTIYEV | 50 to 75
37 | TLFYSLREV | 50 to 75
38 | TLFEHLPHI | 50 to 75
39 | RVA[pS]PTSGV (phosphopeptide from IRS2) [RVAS*PTSGV] | 50 to 75
40 | FLEETKATV | 50 to 75
41 | ALADVVHEA | 50 to 75
42 | ALLAEGITWV | 50 to 75
43 | SLLSGRISTL | 50 to 75
44 | AILETAPKEV | 50 to 75
45 | ALDPKANFST | 50 to 75
46 | SLFGQDVKAV | 50 to 75
47 | KLISSYYNV | 50 to 75
48 | ATLNIIHSV | 50 to 75
49 | ALADKELLPSV | 50 to 75
50 | ALLEENSTPQL | 50 to 75

Row | Binder | peptide exchange yield [%]
51 | RVQEAIAEV | 50 to 75
52 | GQFPSYLETV | 50 to 75
53 | KLNDLIQRL | 50 to 75
54 | SLAEGTATV | 50 to 75
55 | ALYGKTEVV | 50 to 75
56 | ALLGGNVRMML | 50 to 75
57 | QQLDSKFLEQV | 50 to 75
58 | ALRGEIETV | 50 to 75
59 | ALFPALRPGGFQA | 50 to 75
60 | VLDEPYEKV | 50 to 75
61 | GLLAGDRLVEV | 50 to 75
62 | SLLNFLQHL | 50 to 75
63 | YLLEKFVAV | 50 to 75
64 | YIQDEINTI | 50 to 75
65 | SLDGKAALTEL | 50 to 75
66 | VLFQEALWHV | 50 to 75
67 | GLLDNPELRV | 50 to 75
68 | AMAEMKVVL | 50 to 75
69 | VLLAQIIQV | 50 to 75
70 | KLLDLSDSTSV | 50 to 75
71 | GLFNAELLEA | 50 to 75
72 | FLWERPTLLV | 50 to 75
73 | SLLESNKDLLL | 50 to 75
74 | FLLEQPEIQV | 50 to 75
75 | SLFSSPPEI | 50 to 75

Source: patent US20160250307A1 (IMMATICS BIOTECHNOLOGIES, published 2016)
